# In patent publication US20210347908A1 (ELPISCIENCE SUZHOU BIOPHARMA, published 2021):
# Where two headings read alike, the source gives them in different places.
# T1: full length C57BL/6 mouse SIRPα stably expressed on CHOK1 cells (mouse (C57BL/6), UniProt P97797 32-513)
# T1 construct: whole, on cells; also called CHOK1-C57BL/6 mouse SIRPα-2.22 cells
# T1 sequence (looked up): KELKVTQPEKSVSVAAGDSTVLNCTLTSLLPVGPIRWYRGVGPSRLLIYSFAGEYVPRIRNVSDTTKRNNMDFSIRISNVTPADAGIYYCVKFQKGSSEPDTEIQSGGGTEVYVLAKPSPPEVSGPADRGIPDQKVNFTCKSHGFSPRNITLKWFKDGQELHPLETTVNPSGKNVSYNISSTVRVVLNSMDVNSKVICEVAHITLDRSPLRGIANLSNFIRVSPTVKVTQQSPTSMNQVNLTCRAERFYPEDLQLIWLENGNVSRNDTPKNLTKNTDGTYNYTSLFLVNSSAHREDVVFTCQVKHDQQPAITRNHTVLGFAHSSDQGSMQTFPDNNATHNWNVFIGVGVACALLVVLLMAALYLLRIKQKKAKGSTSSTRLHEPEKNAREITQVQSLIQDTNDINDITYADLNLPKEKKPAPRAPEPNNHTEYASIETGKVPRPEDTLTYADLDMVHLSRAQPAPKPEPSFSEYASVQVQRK
# Legend:
# [1] = target: T2, full length human SIRPα v1 stably expressed on CHOK1 cells (human, UniProt P78324 31-504); test: FACS on CHOK1 cells
# T2 construct: whole, on cells; also called CHOK1-human SIRPα v1-1B4 cells; CHOK1-human SIRPα v1
# Procedure: (§1) Species cross reactivity of the purified hybridoma antibodies against human, cyno and mouse SIRPα was determined by FACS assay using CHOK1-human SIRPα v1-1B4 cells, CHOK1-cyno SIRPα-2A2 cells, and CHOK1-C57BL/6 mouse SIRPα-2.22 cells, which stably expressing SIRPα protein. Briefly the antibodies were incubated with 2×10⁵ target cells at 4° C. for 1 hour. After washing, fluorescence labeled anti-mouse or anti-human IgG 2nd antibody (Life Technologies) was added and incubated at 4° C. for 1 hour. Geometric median fluorescence intensity was detected and EC₅₀ was calculated. In particular, it is noted, in contrast to the other antibodies tested in the same experiment, 060 cannot bind with cyno SIRPα and 035 has cross reactivity against C57BL/6 mouse SIRPα.
# [2] = target: T3, biotin labeled soluble human SIRPα v1 ECD recombinant protein (human, UniProt P78324 31-373, biotin labeled); test: competitive ELISA; competitor 060
# T3 construct: extracellular domain
# Procedure: (§2) Competitive ELISA assay was used for epitope binning of 9 functional antibodies. Briefly excessive competitor antibody and biotin labeled soluble human SIRPα v1 ECD recombinant protein were co-incubated with ELISA microplate coated antibody. After washing, HRP-SA was added and incubated at 37° C. for 1 hour. Then, […] of TMB solution (Biotechnology) was added. After incubation for 15 minutes at room temperature, the reaction was stopped by the addition of […] of 1N HCl. OD 450 nm was read. Competition ratio was calculated. The antibodies that can compete each other for binding to SIRPα have the similar binding epitope.
# [3] = target: T3, biotin labeled soluble human SIRPα v1 …; test: competitive ELISA; competitor 074
# Procedure: as §2
# [4] = target: T4, Fc tagged human SIRPα v1 ECD recombinant protein (human, UniProt P78324 31-370); test: ELISA
# T4 construct: range 1-370; cloned range M1-R370 includes the signal peptide; also called hSIRPα V1; not shown: human IgG Fc region (hFc) of the pCPC vector
# Procedure: (§3) Binding specificity of the purified hybridoma antibodies against SIRP family members was detected by ELISA assay using recombinant proteins of Fc tagged human SIRPα v1 ECD, human SIRPα v2 ECD, human SIRPβ ECD and human SIRPγ ECD. Briefly the antibodies were incubated with ELISA microplate coated antigens at 37° C. for 1 hour. After washing, horseradish peroxidase (HRP) labeled anti-mouse or anti-human IgG 2nd Ab (Sigma) was added and incubated at 37° C. for 1 hour. Then, 100 μl/well of TMB solution (Biotechnology) was added. After incubation for 15 minutes at room temperature, the reaction was stopped by the addition of 50 μl of 1N HCl. OD 450 nm was read and EC₅₀ was calculated. Other than 060 and HEFLB, all of the antibodies as tested can bind with both human SIRPα v1 and SIRPα v2. 060 and HEFLB can bind with human SIRPα v1 but not v2. Other than 055, all of the antibodies as tested can bind with human SIRPβ. In comparison with other known anti-SIRPα antibodies, only 022, 035 and 050 can bind with human SIRPγ weakly.
# (§4) The purified chimeric antibodies were applied for binding specificity analysis and species cross reactivity analysis (refer to methods described in Example 3.3 and 3.4). FIGS. 1A to 1D show binding specificity of anti-SIRPα chimeric antibodies against recombinant proteins of human SIRPα v1 ECD (A), human SIRPα v2 ECD (B), human SIRPβ ECD (C) and human SIRPγ ECD (D) as measured by ELISA analysis.
# [5] = target: T4, Fc tagged human SIRPα v1 ECD …; test: ELISA; remark: listed apart in the source
# Procedure: as §3, §4
# [6] = target: T2, full length human SIRPα v1 stably …; test: FACS on CHOK1 cells; remark: listed apart in the source
# Procedure: as §1, with “SIRPα. […]” for “SIRPα.”
# [7] = target: T2, full length human SIRPα v1 stably …; test: FACS on CHOK1 cells; remark: listed apart in the source
# Procedure: as §1, §4
# [8] = target: T1, full length C57BL/6 mouse SIRPα stably …; test: FACS on CHOK1 cells
# Procedure: as §1, §4
# T3 sequence (P78324 31-373): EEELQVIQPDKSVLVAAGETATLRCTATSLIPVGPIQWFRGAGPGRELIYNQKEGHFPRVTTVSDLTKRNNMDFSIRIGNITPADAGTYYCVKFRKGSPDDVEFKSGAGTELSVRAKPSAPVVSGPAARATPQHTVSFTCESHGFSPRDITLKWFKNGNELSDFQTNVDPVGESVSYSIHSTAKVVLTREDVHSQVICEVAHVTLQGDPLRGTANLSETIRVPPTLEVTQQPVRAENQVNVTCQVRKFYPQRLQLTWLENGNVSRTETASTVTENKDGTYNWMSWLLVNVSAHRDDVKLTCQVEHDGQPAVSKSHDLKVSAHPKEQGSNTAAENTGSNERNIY
# T4 sequence (P78324 31-370 limits assumed): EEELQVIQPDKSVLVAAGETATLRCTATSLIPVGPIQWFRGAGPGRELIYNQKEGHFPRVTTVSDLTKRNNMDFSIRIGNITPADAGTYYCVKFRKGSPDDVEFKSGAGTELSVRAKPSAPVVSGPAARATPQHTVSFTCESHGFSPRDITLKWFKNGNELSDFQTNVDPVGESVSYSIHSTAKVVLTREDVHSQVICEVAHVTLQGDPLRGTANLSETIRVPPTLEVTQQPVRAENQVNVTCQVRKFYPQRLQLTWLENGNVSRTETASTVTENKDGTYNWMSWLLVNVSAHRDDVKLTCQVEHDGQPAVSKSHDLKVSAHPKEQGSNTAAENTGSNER
# T2 sequence (P78324 31-504): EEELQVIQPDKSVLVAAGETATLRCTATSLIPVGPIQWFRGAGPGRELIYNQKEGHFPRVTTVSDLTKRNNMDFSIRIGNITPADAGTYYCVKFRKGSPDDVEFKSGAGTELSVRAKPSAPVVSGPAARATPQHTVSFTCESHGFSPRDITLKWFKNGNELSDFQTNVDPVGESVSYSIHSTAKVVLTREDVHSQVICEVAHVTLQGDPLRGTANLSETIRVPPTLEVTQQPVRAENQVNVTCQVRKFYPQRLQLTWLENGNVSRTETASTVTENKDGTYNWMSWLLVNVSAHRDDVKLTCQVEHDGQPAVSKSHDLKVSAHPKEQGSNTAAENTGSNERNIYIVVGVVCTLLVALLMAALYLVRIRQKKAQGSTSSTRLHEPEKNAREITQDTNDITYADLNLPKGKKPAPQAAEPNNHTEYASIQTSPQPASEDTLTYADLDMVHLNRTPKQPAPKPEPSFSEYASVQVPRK
EC50 [1] [nM],% Competition [2] [%],% Competition [3] [%],EC50 [4] [nM],EC50 [5] [nM],EC50 [6] [nM],EC50 [7] [nM],binding result [8],Binder
1.3,17,2,–,–,–,–,–,"Antibody 050 (hybridoma antibody) (antibody, V domains shown, mouse hybridoma antibody) VH: QIQLVQSGPELKKPGETVKISCKASGYTFTHYSMHWVKQAPGKGLKWMGWINTETAEPTYVDDFKGRFAFSLEASASTAFFQINNLKNEDTATYFCARGGLRQGDYWGQGTTLTVSS VL: QIVLTQSPPIMSASPGEKVTLTCSATSSVSASYLYWFQQKPGSSPKLWIYSTSNLASGVPARFSGSGSGTSYSLTISNMEPADAASYFCHQWSSYPYTFGGGTKLEIK"
1,-1,92,–,–,–,–,–,"Antibody 074 (hybridoma antibody) (antibody, V domains shown, mouse hybridoma antibody) VH: QVQLQQPRAELVKPGASVMLSCKASGYTFSSYWIHWVRQGPGQGLEWIGLIHPNSGNTDCSETFKNKATLTVDTSSSTAYMQLSSLASEDSAVYYCARDGASYDWFVHWGQGTLVTVSA VL: not shown"
0.9,93,-1,–,–,–,–,–,"Antibody 060 (hybridoma antibody) (antibody, V domains shown, mouse hybridoma antibody) VH: QVQLKESGPGLVAPSESLSITCTVSGFSLTNYDISWIRQSPGKGLEWLGVIWTGGDTNFNSAFMSRLSISKDKSKSQVFLKLNSLQTDDTAIYYCVRVQYFGGSYGPMDYWGQGISVTVSS VL: DIQMTQASSYLSVSLGGRVTITCEASDHINDWLAWYQQTPGNAPRLLISGATSLETGVPSRFSGSGSGKDYTLSITSLQTEDIATYYCQQYWNTPLTFGAGTRLELK"
–,–,–,0.12,0.12,1.7,1.7,no binding (tested: 10 nM),"chimeric antibody 001c (antibody, V domains shown) VH: EVKLEESGGGLVQPGGSMKLSCVASGFTFRNYWMNWVRQSPERGLEWIAEISLKSNTYATHYAESVKGRFAISRDGSKSSFYLQMNDLRAEDTGIYYCTTFTKVVADWHLDVWGAGTTVTVSS VL: DVLMTQTPLSLPVSLGDQASISCRSSQNIVHSNGNTYLEWYLQKPGQSPKLLIYKVSNRFSGVPDRFSGSGSGTDFTLRISRVEAEDLGVYYCFQGSHVPFTFGSGTKLEIK"
1,19,5,–,–,–,–,–,"Antibody 001 (hybridoma antibody) (antibody, V domains shown, mouse hybridoma antibody) VH: EVKLEESGGGLVQPGGSMKLSCVASGFTFRNYWMNWVRQSPERGLEWIAEISLKSNTYATHYAESVKGRFAISRDGSKSSFYLQMNDLRAEDTGIYYCTTFTKVVADWHLDVWGAGTTVTVSS VL: DVLMTQTPLSLPVSLGDQASISCRSSQNIVHSNGNTYLEWYLQKPGQSPKLLIYKVSNRFSGVPDRFSGSGSGTDFTLRISRVEAEDLGVYYCFQGSHVPFTFGSGTKLEIK"
0.4,7,6,–,–,–,–,–,"Antibody 032 (hybridoma antibody) (antibody, V domains shown, mouse hybridoma antibody) VH: EVRLEESGGGLVQPGGSMKLSCVVSGFTFRNYWMNWVRQSPERGLEWIAEITLKSNTYATHYAESVKGRFAISRDDSKSSFYLQMNDLRPEDTGIYYCTTFTKVVADWHLDVWGAGTTVTVSS VL: DVLMTQTPLSLPVNLGDQASISCRSSQNIVHSNGNTYLEWYLQKPGQSPKLLIYKVSNRFSGVPDRFSGSGSGTDFTLRISRVEAEDLGVYYCFQGSHVPFTFGSGTKLEIK"
–,–,–,0.06,0.06,2.4,2.4,no binding (tested: 10 nM),"chimeric antibody 002c (antibody, V domains shown) VH: EVKLEESGGGLVQPGGSMILSCVASGFTFRNYWMNWVRQSPERGLEWIAEITLKSNTYATHYAESVKGRFAISRDDSKSSFYLQMNDLRPEDTGIYYCTTFTKVVADWHLDVWGAGTTVTVSS VL: DVLMTQTPLSLPVSLGDQASISCRSSQNIVHSNGNTYLEWYLQKPGQSPKLLIYKISNRFSGVPDRFSGSGSGTDFTLRISRVEAEDLGVYYCFQGSHVPFTFGSGTKLEIQ"
1,-10,-10,–,–,–,–,–,"Antibody 002 (hybridoma antibody) (antibody, V domains shown, mouse hybridoma antibody) VH: EVKLEESGGGLVQPGGSMILSCVASGFTFRNYWMNWVRQSPERGLEWIAEITLKSNTYATHYAESVKGRFAISRDDSKSSFYLQMNDLRPEDTGIYYCTTFTKVVADWHLDVWGAGTTVTVSS VL: DVLMTQTPLSLPVSLGDQASISCRSSQNIVHSNGNTYLEWYLQKPGQSPKLLIYKISNRFSGVPDRFSGSGSGTDFTLRISRVEAEDLGVYYCFQGSHVPFTFGSGTKLEIQ"
–,–,–,0.12,0.12,3,3,no binding (tested: 10 nM),"chimeric antibody 032c (antibody, V domains shown) VH: EVRLEESGGGLVQPGGSMKLSCVVSGFTFRNYWMNWVRQSPERGLEWIAEITLKSNTYATHYAESVKGRFAISRDDSKSSFYLQMNDLRPEDTGIYYCTTFTKVVADWHLDVWGAGTTVTVSS VL: DVLMTQTPLSLPVNLGDQASISCRSSQNIVHSNGNTYLEWYLQKPGQSPKLLIYKVSNRFSGVPDRFSGSGSGTDFTLRISRVEAEDLGVYYCFQGSHVPFTFGSGTKLEIK"
2.1,26,-1,–,–,–,–,–,"Antibody 022 (hybridoma antibody) (antibody, V domains shown, mouse hybridoma antibody) VH: QIQLVQSGPELKKPGETVKISCKASGYTFTDYAMHWVKQAPGKGLKWMGWKNTETGESTYAEDFKGRFAFFLETSASTAYLQINNVKNEDTATYFCARGGYGSNYVMDYWGQGTSVIVSS VL: DIQMTQSSSSFSVSLGDRVTITCKASEDIYNRLAWYQQKPGNAPRLLISGATSLETGVPSRFSGSGSGKDYTLSITSLQTEDVATYYCQQYWNSPRTFGGGTKLEIK"
0.7,-1,6,–,–,–,–,–,"Antibody 035 (hybridoma antibody) (antibody, V domains shown, mouse hybridoma antibody) VH: QIQLVQSGPELRKPGETVKISCKASGYSFTNYAMNWVKQAPGKVLKWMGFINTYTGEPTYADDFKGRFAFSLETSASTAYLQINNLKNEDTATYFCTRTRGYYDFDGGAFDYWGQGTSLTVSS VL: DIVMTQSQKFMSTSIGDRVSVTCKASQNVGTHLAWYQQKPGQSPKALIFSASYRYIGVPDRFTGSGSGTDFTLTITNVQSEDLAEYFCQQYNTYPLTFGAGTKLELK"
